Measurements: publication PMC2921341, “Interaction of Serum- and Glucocorticoid Regulated Kinase 1 (SGK1) with the WW-Domains of Nedd4-2 Is Required for Epithelial Sodium Channel Regulation” (PLoS ONE, 2010)

T1: SGK PY-motif peptide (human)
T1 construct: N-terminal cysteine of the printed peptide; stretch of human SGK (SGK1) with the PY motif PPFY (Y298); also called SGK peptide; source: synthetic peptide (Auspep)
T1 peptide: H-CLYGLPPFYSRNT-NH2


Molecular target: T1, SGK PY-motif peptide
Experiment: SPR; BIAcore 2000; peptide immobilised on Sensor Chip CM5 by amine chemistry; isolated WW-domains injected at 20 µl/min in HBS-EP; KD estimated from steady state equilibrium responses
Conditions: both partners purified

Binder | Kd [µM]
GFLPKGWEVRHAPNGRPFFIDHNTKTTTWEDPRL (domain or fragment, UniProt P46934 840-873, looked up, Nedd4 WW-domain 3 (a Nedd4 with four WW-domains); also called WW-domain 3 of Nedd4; source: E. coli BL21, GST removed with thrombin or TEV protease, purified (glutathione-Sepharose, Superdex-75)) [Nedd4 WW3 (isolated WW-domain, GST removed)] | 130
Nedd4-2 WW2-3 (isolated protein, GST removed) (domain or fragment) TTPGLPSGWEERKDAKGRTYYVNHNNRTTTWTRPIMQLAEDGASGSATNSNNHLIEPQIRRPRSLSSPTVTLSAPLEGAKDSPVRRAVKDTLSNPQSPQPSPYNSPKPQHKVTQSFLPPGWEMRIAPNGRPFFIDHNTKTTTWEDPRLKFPVHM | 53.3
DLGPLPPGWEERIHLDGRTFYIDHNSKITQWEDPRLQNPAIT (domain or fragment) [Nedd4-2 WW4 (isolated WW-domain, GST removed)] | > 600
RNase (enzyme) KETAAAKFERQHMDSSTSAASSSNYCNQMMKSRNLTKDRCKPVNTFVHESLADVQAVCSQKNVACKNGQTNCYQSYSTMSITDCRETGSSKYPNCAYKTTQANKHIIVACEGNPYVPVHFDASV | > 600
Nedd4-2 WW2 (isolated WW-domain, GST removed) (domain or fragment) not shown | 105
Nedd4-2 WW1 (isolated WW-domain, GST removed) (domain or fragment) not shown | > 600
